According to patent US10273304B2, “Biomarker profiles for predicting outcomes of cancer therapy with ERBB3 inhibitors and/or chemotherapies” (Merrimack Pharmaceuticals, Inc., priority 2013, dated 2019):

Tests used:
[1] = system: advanced, platinum-resistant ovarian cancer; assay: Clinical trial, ovarian cancer: paclitaxel with or without MM-121; format: in vivo, human; details: for HR (PFS, treatment vs control): paclitaxel+MM-121 vs paclitaxel, data at 60 weeks
Method: A clinical trial was performed that was designed to allow, inter alia, determination of associations between biomarker profiles and clinical responses. Biomarker data were measured in pre-treatment biopsies and (when available) in archived tumor samples. Results pertaining to predictive biomarkers measured in pre-treatment biopsies are described herein.
Four types of assay (each set forth above) were used to assess the six primary biomarkers assessed in this study (EGFR, ErbB2, ErbB3, ErbB4, HRG and BTC):
In total, six primary biomarkers were measured using 15 assays. For the 5 chromogenic assays (qIHC and RNA-ISH), two different overall scores were used: composite score and top-10 score. Accordingly, 20 different variables were assessed at this stage. A Cox proportional hazard model was used to rank the biomarkers. This method determines if PFS varies with biomarker values differently in the treatment arm relative to the control arm. A P-value cutoff of 0.4 was used to determine which biomarkers would be prioritized for subsequent bivariate analyses.
Based on these two thresholds, a biomarker profile positive (BM+) subpopulation is defined for subsequent analyses as: (ErbB2 levels ≤log10 5.1) AND (HRG score ≥1) (“ErbB2 low” AND “HRG positive”). Accordingly, a biomarker profile negative (BM−) subpopulation is defined as (ErbB2 levels >log10 5.1) OR (HRG score <1) This definition results in a BM+prevalence of 34% in the clinical trial population.
In FIG. 8G (progression free survival at 10+ months) and FIG. 8H (overall survival at 10+ months), the treatment arm is represented by a blue line and the control arm is represented by a black line.

[2] = system: EGFR-wild-type non-small cell lung cancer (NSCLC)
Text: A group participating in the study was comprised of 132 patients with wild-type epidermal growth factor receptor (EGFR) who progressed on ≥1 platinum-based standard of care therapy and were EGFR tyrosine kinase inhibitor (TKI)-naïve. […] Data were collected at 10+ months.
Therefore, in this Example, Biomarker positive (BM+) is used interchangeably with Heregulin positive (HRG+). BM+ patients were defined as having detectable HRG mRNA by RNA-ISH (RNA in situ hybridization) as described above in Example 1.

[3] = system: locally advanced or metastatic ER+ and/or PR+, HER2 negative breast cancer; assay: Randomized, double-blind phase 2 trial of exemestane +/- MM-121, breast cancer; format: in vivo, human
[4] = target: ErbB3 (Homo sapiens, UniProt P21860); assay: Pre-clinical data and computational modeling: MM-121 potency versus ErbB2 level; details: when ErbB2 levels rise above about 100,000 to about 200,000 receptors per cell
[5] = BM+ (heregulin+) patients, FIG. 11
[6] = group ErbB2 < 5.1 (qIHC) & HRG > -5

Which “PFS of BM- (heregulin-) patients compared with BM+ (heregulin+) patients” value (shortened to “PFS … compared with BM+ (heregulin+) patients”) ([1]; patients treated with paclitaxel alone, FIG. 8I) does the source give for CC(=O)O[C@H]1C(=O)[C@@]2(C)[C@H]([C@H](OC(=O)c3ccccc3)[C@]3(O)C[C@H](OC(=O)[C@H](O)[C@@H](NC(=O)c4ccccc4)c4ccccc4)C(C)=C1C3(C)C)[C@]1(OC(C)=O)CO[C@@H]1C[C@@H]2O [paclitaxel, Paclitaxel, reference compound] here?
The value was “much longer PFS”.

How did the “best overall response: complete response (CR)” value [2, 5] turn out when C#Cc1cccc(Nc2ncnc3cc(OCCOC)c(OCCOC)cc23)c1 [erlotinib] was run?
The value was “none”.

What about the “best overall response: partial response (PR)” value [2, 5] of the same molecule?
Its value is 6.7%.

What about the “best overall response: progressive disease (PD)” value [2, 5] of the same molecule?
Its value is 53.3%.

And the “PFS … compared with BM+ (heregulin+) patients” value ([2]; patients treated with erlotinib alone, FIG. 12C)?
The value was “much longer PFS”.

Which “PFS … compared with BM+ (heregulin+) patients” value ([3]; patients treated with exemestane alone, FIG. 10E) does the source give for C=C1C[C@@H]2[C@H](CC[C@]3(C)C(=O)CC[C@@H]23)[C@@]2(C)C=CC(=O)C=C12 [exemestane, 6-methylenandrosta-1,4-diene-3,17-dione, reference compound] here?
The value was “much longer PFS”.

B1: MM-121: anti-ErbB3 monoclonal antibody having VH and VL sequences as shown in SEQ ID NOs: 1 and 2 (antibody, V domains shown)
VH: EVQLLESGGGLVQPGGSLRLSCAASGFTFSHYVMAWVRQAPGKGLEWVSSISSSGGWTLYADSVKGRFTISRDNSKNTLYLQMNSLRAEDTAVYYCTRGLKMATIFDYWGQGTLVTVSS
VL: QSALTQPASVSGSPGQSITISCTGTSSDVGSYNVVSWYQQHPGKAPKLIIYEVSQRPSGVSNRFSGSKSGNTASLTISGLQTEDEADYYCCSYAGSSIFVIFGGGTKVTVL
Which results are given for B1?
HR (trt:ctrl) ([1]; BM+ (HER2 low & HRG+), subgroup ErbB4 score 0): 0.13; HR (trt:ctrl) ([1]; BM+, subgroup ErbB4 score >=1): 0.65; HR (trt:ctrl) ([1]; BM- (HER2 low & HRG+ not met), subgroup ErbB4 score 0): 1.05; HR (trt:ctrl) ([1]; BM-, subgroup ErbB3 score >=2): 0.86; cumulative HR ([1]; all patients with BM measurements, prevalence=100%): ≈ 1; HR (PFS, treatment vs control) ([1]; BM+ subpopulation (ErbB2 <=log10 5.1 AND HRG score >=1)): 0.37; HR (PFS, treatment vs control) ([1]; BM- subpopulation (ErbB2 >log10 5.1 OR HRG score <1)): 1.54; estimated HR in the BM+ group, sensitivity analysis ([3]; Cox model with additive terms for treatment, biomarker groups and clinical covariates): 0.38; HR, BM population ([3]; MM-121+exemestane vs exemestane, no selection, N=115): 0.75; HR, BM negative ([3]; group ErbB2 < 5.1 (HCT)): 3.00; HR, BM population ([3]; group ErbB2 < 5.1 (HCT)): 0.82; HR, BM positive ([3]; group ErbB2 < 5.1 (HCT)): 0.62; HR, BM population ([3]; group ErbB2 < 5.1 (HCT) & HRG > -5, 55 patients): 0.66; HR, BM positive ([3]; group ErbB2 < 5.1 (HCT) & HRG > -5, PFS at about 60 weeks, N=17): 0.32; HR, BM negative ([3]; group ErbB2 < 5.1 (HCT) & HRG > -5, PFS at about 60 weeks, N=38): 0.89; HR, BM negative ([3]; group ErbB2 < 5.1 (qIHC)): 3.00; HR, BM population ([3]; group ErbB2 < 5.1 (qIHC)): 1.16; HR, BM positive ([3]; group ErbB2 < 5.1 (qIHC)): 0.84; HR, BM negative [3, 6]: 1.30; HR, BM population [3, 6]: 0.86; HR, BM positive [3, 6]: 0.32; HR, BM negative ([3]; group HRG > -5): 0.99; HR, BM positive ([3]; group HRG > -5): 0.35; HR, BM population ([3]; group HRG > -5 (RT-PCR), all patients with this biomarker): 0.68; potency as a function of ErbB2 level [4]: loses potency
